Assay results published in US20110224143A1 (ROCKERFELLER UNIVERSITY, published 2011).
Positions of bridges follow the written chain, without caps; N, C: chain ends. No end group written: not given here.

Target: T1, sNUCB1 (N-terminally truncated human NUCB1, deletion of residues 1-31) (Homo sapiens, UniProt Q02818 32-461)
T1 construct: Expressed in E. coli; also called Calnuc; Ca2+ free NUCB1
T1 sequence: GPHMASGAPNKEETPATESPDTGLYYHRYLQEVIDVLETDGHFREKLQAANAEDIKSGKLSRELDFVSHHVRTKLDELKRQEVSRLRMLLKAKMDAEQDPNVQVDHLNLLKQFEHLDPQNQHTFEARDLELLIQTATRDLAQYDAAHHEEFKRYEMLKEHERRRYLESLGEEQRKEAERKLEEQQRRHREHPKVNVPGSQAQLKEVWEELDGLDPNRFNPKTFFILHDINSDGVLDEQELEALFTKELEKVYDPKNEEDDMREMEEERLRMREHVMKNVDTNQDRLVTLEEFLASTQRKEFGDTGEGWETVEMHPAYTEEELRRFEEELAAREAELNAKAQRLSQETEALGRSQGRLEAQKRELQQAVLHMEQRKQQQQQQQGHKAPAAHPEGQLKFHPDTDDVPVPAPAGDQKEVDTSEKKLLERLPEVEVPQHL
Assay: inferred from TEM of Amylin fibrillization with Ca2+ free NUCB1 added 1:1 at t=0, 2, 7 and 15 min
Description: Aggregation of Amylin involves an initial lag phase, which is associated with the formation of a nucleus. This nucleation phase is followed by the growth phase where monomers/oligomers add on to the nucleus converting the protofibrillar species into mature fibrils (Merlini and Bellotti, N. Engl. J. Med. 349, 583-596, 2003). Inhibitors of amyloidogenesis, known to date, either prolong the lag phase or slow down the growth phase. […] In the second reaction, Amylin oligomerization was allowed to proceed for 2 min into the reaction after which equimolar amount of NUCB1 was added. […] In the third reaction, NUCB1 was added after the nucleation phase of Amylin aggregation was complete (t=7 min). […] In the fourth experiment, the fibrillization reaction was allowed to proceed to the growth phase and NUCB1 was added during the elongation phase (t=1 5 min). […] This summarizes and supports the observation that Ca2+ free NUCB1 can inhibit the aggregation of Amylin at any stage during the fibrillization reaction.

binding result: binds
B1: Wild type human IAPP (Amylin) (peptide, UniProt P10997 34-70, looked up)
peptide: KCNTATCATQRLANFLVHSSNNFGAILSSTNVGSNTY-NH2
modifications: disulfide 2-7 (inferred)
notes: mature; Present in the assays as monomers, oligomers, protofibrils or mature fibrils, depending on the time of addition; also called hIAPP; Amylin peptide
